This note sets out measurements from patent US20220289845A1.

pKd: −log10 of the molar value.

The target in experiment [1] is cynomolgus CD47. In words: SPR; assay 1.
Experiment [2] deals with human CD47 (UniProt Q08722). In words: SPR; assay 1.
The target of experiment [3] is cynomolgus CD47. The experiment can be described thus: SPR; assay 2.
The target of experiment [4] is human CD47 (UniProt Q08722). In words: SPR; assay 2.
Experiment [5] has as its target cynomolgus CD47. In words: SPR; average. (In general: In SPR one partner is held on a chip, and binding of the other changes the refractive index at the surface.)
The target in experiment [6] is human CD47 (UniProt Q08722). The experiment can be described thus: SPR; average.

cynomolgus CD47, sequence (Q08722 other isoform, or with tags, fused parts or gaps): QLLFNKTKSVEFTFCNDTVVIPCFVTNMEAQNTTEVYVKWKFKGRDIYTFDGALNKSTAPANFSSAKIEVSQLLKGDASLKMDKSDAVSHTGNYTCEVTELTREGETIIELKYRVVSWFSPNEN
human CD47, sequence (Q08722 19-142): as the sequence (Q08722 other isoform, or with tags, fused parts or gaps) above, with A59V, A61T, N62D counted along it

For orientation: pKd means −log10 of the Kd, conventionally taken in molar units. Take Hu5F9-G4: the pKd with cynomolgus CD47 [1] was 10.92; with human CD47 [2] it was 10.84; in the experiment with cynomolgus CD47 [3], 11.14; in the experiment with human CD47 [4], 11.69; in the experiment with cynomolgus CD47 [5], 11.00; in the experiment with human CD47 [6] it was 11.10.
